{"source": "ChEMBL document CHEMBL1127417", "about": "“Multisubstrate inhibition of 4-hydroxybenzoate 3-monooxygenase” (J Med Chem, 1994)", "proteins": {"B1": {"name": "p-hydroxybenzoate hydroxylase (Pseudomonas fluorescens), P00438 (protein)", "chain": "MKTQVAIIGAGPSGLLLGQLLHKAGIDNVILERQTPDYVLGRIRAGVLEQGMVDLLREAGVDRRMARDGLVHEGVEIAFAGQRRRIDLKRLSGGKTVTVYGQTEVTRDLMEAREACGATTVYQAAEVRLHDLQGERPYVTFERDGERLRLDCDYIAGCDGFHGISRQSIPAERLKVFERVYPFGWLGLLADTPPVSHELIYANHPRGFALCSQRSATRSRYYVQVPLTEKVEDWSDERFWTELKARLPAEVAEKLVTGPSLEKSIAPLRSFVVEPMQHGRLFLAGDAAHIVPPTGAKGLNLAASDVSTLYRLLLKAYREGRGELLERYSAICLRRIWKAERFSWWMTSVLHRFPDTDAFSQRIQQTELEYYLGSEAGLATIAENYVGLPYEEIE"}}, "key": {"[1]": {"substrate": "O=C(O)c1ccc(O)cc1OCc1ccccc1", "assay": "Michaelis-Menten constant against p-hydroxybenzoate hydroxylase (PHBH) from Pseudomonas fluorescence compared with NADPH", "settings": "Pseudomonas fluorescens"}, "[2]": {"substrate": "O=C(O)c1ccc(O)cc1OCc1ccccc1", "assay": "Michaelis-Menten constant against p-hydroxybenzoate hydroxylase (PHBH) from Pseudomonas fluorescence compared with p-hydroxy benzoic acid", "settings": "Pseudomonas fluorescens"}}}
{"protein": "B1", "values": [{"measurement": "Km", "setting": "[1]", "result": 57, "unit": "µM"}, {"measurement": "Km", "setting": "[2]", "result": 21, "unit": "µM"}]}
